# Experimental data taken from patent publication US20030068675, “Position dependent recognition of GNN nucleotide triplets by zinc fingers” (published 2003).
# Residue numbers refer to the chain shown, from its start.
# T1: ZFP SBS#941 (synthetic)
# T1 chain: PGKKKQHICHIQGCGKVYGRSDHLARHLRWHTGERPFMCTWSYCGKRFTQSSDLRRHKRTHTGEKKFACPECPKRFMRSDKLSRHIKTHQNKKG
# T2: ZFP SBS#943 (synthetic)
# T2 chain: T1 chain with Q50T, S52G, D53E, R55V
# T3: ZFP SBS#993 (synthetic, UniProt P08047)
# T3 chain: T1 chain with Q50T, S52G, D53E, R55V, K81H
# T4: ZFP SBS#1039 (synthetic)
# T4 chain: T1 chain with A25S, Q50T, S52G, D53E, R55V, K81H, S83T
# T5: ZFP SBS#1066 (synthetic)
# T5 chain: T1 chain with R20Q, D22S, A25T, Q50D, S51R, D53H, R55A, K81N, S83V
# T6: ZFP SBS#1067 (synthetic)
# T6 chain: T1 chain with R20T, D22G, A25V, Q50D, S51R, D53H, R55A, K81N, S83V
# T7: ZFP SBS#1060 (synthetic)
# T7 chain: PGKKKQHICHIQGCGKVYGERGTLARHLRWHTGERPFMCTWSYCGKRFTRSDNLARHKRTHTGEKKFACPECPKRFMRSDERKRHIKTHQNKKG
# T8: ZFP SBS#1041 (synthetic)
# T8 chain: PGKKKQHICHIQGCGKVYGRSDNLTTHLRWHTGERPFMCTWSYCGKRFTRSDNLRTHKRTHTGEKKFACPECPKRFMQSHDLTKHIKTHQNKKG
# T9: ZFP SBS#919 (synthetic)
# T9 chain: T8 chain with H80G, T83R, K84T
# T10: ZFP SBS#1053 (synthetic)
# T10 chain: T1 chain with Q50D, S51R, D53N, R55T, K81N, S83T, R84T
# T11: ZFP SBS#1052 (synthetic)
# T11 chain: T1 chain with Q50E, S51K, S52A, D53N, R55T, K81N, S83T, R84T
# T12: ZFP SBS#1059 (synthetic)
# T12 chain: T1 chain with H23E, A25T, Q50D, S51R, R55T, K81H
# T13: ZFP SBS#1058 (synthetic)
# T13 chain: T1 chain with H23E, A25T, Q50D, S51R, D53S, R55T, K81H
# T14: ZFP SBS#1044 (synthetic)
# T14 chain: T1 chain with H23N, S51R, S52A, D53H, R55E, K81N, S83R, R84E
# T15: ZFP SBS#1048 (synthetic)
# T15 chain: T1 chain with R20Q, D22G, H23A, A25T, R55Q, K81N, S83R, R84E
# T16: ZFP SBS#1049 (synthetic)
# T16 chain: T1 chain with R20Q, S21R, D22A, H23S, R55Q, K81N, S83R, R84E
# T17: ZFP SBS#1051 (synthetic)
# T17 chain: T1 chain with H23N, A25T, R55Q, K81N, S83V
# T18: ZFP SBS#1064 (synthetic)
# T18 chain: T1 chain with H23A, A25T, S52G, D53S, R55T, K81E, L82R, S83K
# T19: ZFP SBS#1047 (synthetic)
# T19 chain: T1 chain with R20Q, S21R, D22A, A25E, S52G, D53S, R55T, K81H
# T20: ZFP SBS#1065 (synthetic)
# T20 chain: T1 chain with Q50D, S51R, D53H, R55A, K81H, S83T, R84T
# T21: ZFP SBS#461 (synthetic)
# T21 chain: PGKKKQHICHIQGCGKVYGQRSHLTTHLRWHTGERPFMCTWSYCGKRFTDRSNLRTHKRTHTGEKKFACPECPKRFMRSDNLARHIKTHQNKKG
# T22: ZFP SBS#1055 (synthetic)
# T22 chain: T1 chain with S52G, D53S, R55T, R78T, D80G, K81D, S83T
# T23: ZFP SBS#1063 (synthetic, UniProt P08047)
# T23 chain: T1 chain with Q50R, S52D, D53E, R55Q, R78M, D80H, K81A
# T24: ZFP SBS#1062 (synthetic)
# T24 chain: T1 chain with Q50R, S52D, D53E, R55Q, R78T, D80G, K81S, S83T
# B1: GGGGCTGGG (dsDNA)
# DNA 1: GGGGCTGGG
# DNA 2: CCCAGCCCC
# B2: GGTGGAGTCA (dsDNA)
# DNA 1: GGTGGAGTCA
# DNA 2: TGACTCCACC
# B3: GAGGGCGGT (dsDNA)
# DNA 1: GAGGGCGGT
# DNA 2: ACCGCCCTC
# B4: GCGGAGGCC (dsDNA)
# DNA 1: GCGGAGGCC
# DNA 2: GGCCTCCGC
# B5: TCATAGTAG (dsDNA)
# DNA 1: TCATAGTAG
# DNA 2: CTACTATGA
# B6: TAGGACGGG (dsDNA)
# DNA 1: TAGGACGGG
# DNA 2: CCCGTCCTA
# B7: GGGGCCGCG (dsDNA)
# DNA 1: GGGGCCGCG
# DNA 2: CGCGGCCCC
# B8: CAGGGAGAG (dsDNA)
# DNA 1: CAGGGAGAG
# DNA 2: CTCTCCCTG
# B9: CAGGCTGTA (dsDNA)
# DNA 1: CAGGCTGTA
# DNA 2: TACAGCCTG
# B10: GAGGCTGAG (dsDNA)
# DNA 1: GAGGCTGAG
# DNA 2: CTCAGCCTC
# B11: GCGGCAGTG (dsDNA)
# DNA 1: GCGGCAGTG
# DNA 2: CACTGCCGC
# B12: GGGGCAGGA (dsDNA)
# DNA 1: GGGGCAGGA
# DNA 2: TCCTGCCCC
# B13: TGGGGCGGG (dsDNA)
# DNA 1: TGGGGCGGG
# DNA 2: CCCGCCCCA
# B14: GAGTACTGTA (dsDNA)
# DNA 1: GAGTACTGTA
# DNA 2: TACAGTACTC
# B15: GCTGCAGGG (dsDNA)
# DNA 1: GCTGCAGGG
# DNA 2: CCCTGCAGC
# B16: GTTGCGGGG (dsDNA)
# DNA 1: GTTGCGGGG
# DNA 2: CCCCGCAAC
# Legend:
# Test in all cases: EMSA
# Settings in all cases: tags: MBP fusion
# ZFP SBS#944 = ZFP SBS#944 (synthetic, UniProt P08047)
# Method in brief: (§1)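 Purified ZFP was titrated against labeled double-stranded target (1 nM or lower, at least 10-fold below expected Kd) carrying the natural binding site with flanks. Binding buffer was 10 mM Tris pH 7.5, 100 mM KCl, 1 mM MgCl2, 0.1 mM ZnCl2, 5 mM DTT, 10% glycerol, 0.02% BSA, with equilibration for at least 45 min. Bound and free target were separated on a 10% polyacrylamide gel.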
# ZFP SBS#941 = biological target: T1, ZFP SBS#941
# Method in brief: as §1
# ZFP SBS#943 = biological target: T2, ZFP SBS#943
# Method in brief: as §1
# ZFP SBS#993 = biological target: T3, ZFP SBS#993
# Method in brief: as §1
# ZFP SBS#1040 = ZFP SBS#1040 (synthetic, UniProt P08047)
# Method in brief: as §1
# ZFP SBS#942 = ZFP SBS#942 (synthetic, UniProt P08047)
# Method in brief: as §1
# ZFP SBS#1039 = biological target: T4, ZFP SBS#1039
# Method in brief: as §1
# ZFP SBS#453 = ZFP SBS#453 (synthetic)
# Method in brief: as §1
# ZFP SBS#441 = ZFP SBS#441 (synthetic)
# Method in brief: as §1
# ZFP SBS#1066 = biological target: T5, ZFP SBS#1066
# Method in brief: as §1
# ZFP SBS#1067 = biological target: T6, ZFP SBS#1067
# Method in brief: as §1
# ZFP SBS#1060 = biological target: T7, ZFP SBS#1060
# Method in brief: as §1
# ZFP SBS#1041 = biological target: T8, ZFP SBS#1041
# Method in brief: as §1
# ZFP SBS#919 = biological target: T9, ZFP SBS#919
# Method in brief: as §1
# ZFP SBS#1053 = biological target: T10, ZFP SBS#1053
# Method in brief: as §1
# ZFP SBS#1052 = biological target: T11, ZFP SBS#1052
# Method in brief: as §1
# ZFP SBS#1059 = biological target: T12, ZFP SBS#1059
# Method in brief: as §1
# ZFP SBS#1058 = biological target: T13, ZFP SBS#1058
# Method in brief: as §1
# ZFP SBS#1043 = ZFP SBS#1043 (synthetic)
# Method in brief: as §1
# ZFP SBS#1044 = biological target: T14, ZFP SBS#1044
# Method in brief: as §1
# ZFP SBS#1048 = biological target: T15, ZFP SBS#1048
# Method in brief: as §1
# ZFP SBS#1049 = biological target: T16, ZFP SBS#1049
# Method in brief: as §1
# ZFP SBS#1050 = ZFP SBS#1050 (synthetic)
# Method in brief: as §1
# ZFP SBS#1051 = biological target: T17, ZFP SBS#1051
# Method in brief: as §1
# ZFP SBS#1064 = biological target: T18, ZFP SBS#1064
# Method in brief: as §1
# ZFP SBS#1047 = biological target: T19, ZFP SBS#1047
# Method in brief: as §1
# ZFP SBS#1046 = ZFP SBS#1046 (synthetic)
# Method in brief: as §1
# ZFP SBS#1045 = ZFP SBS#1045 (synthetic)
# Method in brief: as §1
# ZFP SBS#1065 = biological target: T20, ZFP SBS#1065
# Method in brief: as §1
# ZFP SBS#461 = biological target: T21, ZFP SBS#461
# Method in brief: as §1
# ZFP SBS#1057 = ZFP SBS#1057 (synthetic)
# Method in brief: as §1
# ZFP SBS#1055 = biological target: T22, ZFP SBS#1055
# Method in brief: as §1
# ZFP SBS#1056 = ZFP SBS#1056 (synthetic)
# Method in brief: as §1
# ZFP SBS#1054 = ZFP SBS#1054 (synthetic)
# Method in brief: as §1
# ZFP SBS#1063 = biological target: T23, ZFP SBS#1063
# Method in brief: as §1
# ZFP SBS#1062 = biological target: T24, ZFP SBS#1062
# Method in brief: as §1
# ZFP SBS#1061 = ZFP SBS#1061 (synthetic)
# Method in brief: as §1
# Chain of ZFP SBS#942 (P08047 other isoform, or with tags, fused parts or gaps): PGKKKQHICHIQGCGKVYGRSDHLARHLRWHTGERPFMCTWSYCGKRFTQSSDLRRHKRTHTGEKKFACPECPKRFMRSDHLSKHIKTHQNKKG
# Chain of ZFP SBS#1045 (synthetic) (chain, as listed by the source): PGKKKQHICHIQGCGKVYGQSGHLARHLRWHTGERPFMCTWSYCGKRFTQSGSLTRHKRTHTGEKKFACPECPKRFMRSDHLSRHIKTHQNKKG
# Chain of ZFP SBS#1054 (synthetic) (chain, as listed by the source): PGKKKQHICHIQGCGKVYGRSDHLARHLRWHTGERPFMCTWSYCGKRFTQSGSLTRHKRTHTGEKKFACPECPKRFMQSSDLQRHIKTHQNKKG
# Chain of ZFP SBS#453 (synthetic) (chain, as listed by the source): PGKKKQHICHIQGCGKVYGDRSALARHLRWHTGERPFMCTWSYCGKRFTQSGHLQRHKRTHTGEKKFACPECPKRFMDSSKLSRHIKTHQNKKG
# Chain of ZFP SBS#1050 (synthetic) (chain, as listed by the source): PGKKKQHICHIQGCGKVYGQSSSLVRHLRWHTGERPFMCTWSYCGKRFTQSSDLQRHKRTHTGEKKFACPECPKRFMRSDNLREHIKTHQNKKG
# Chain of ZFP SBS#1043 (synthetic) (chain, as listed by the source): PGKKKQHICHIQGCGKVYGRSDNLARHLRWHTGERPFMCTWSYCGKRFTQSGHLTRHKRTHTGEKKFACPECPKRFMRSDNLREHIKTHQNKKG
# Chain of ZFP SBS#1040 (P08047 other isoform, or with tags, fused parts or gaps): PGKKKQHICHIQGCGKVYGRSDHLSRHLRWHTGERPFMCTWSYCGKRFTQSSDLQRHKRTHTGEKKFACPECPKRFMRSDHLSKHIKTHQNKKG
# Chain of ZFP SBS#944 (P08047 other isoform, or with tags, fused parts or gaps): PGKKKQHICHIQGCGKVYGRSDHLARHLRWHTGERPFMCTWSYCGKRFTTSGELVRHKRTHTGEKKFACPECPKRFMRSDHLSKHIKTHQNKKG
# Chain of ZFP SBS#441 (synthetic) (chain, as listed by the source): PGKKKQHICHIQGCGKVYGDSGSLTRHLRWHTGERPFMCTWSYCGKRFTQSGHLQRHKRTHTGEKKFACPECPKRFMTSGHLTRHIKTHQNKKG
# Chain of ZFP SBS#1061 (synthetic) (chain, as listed by the source): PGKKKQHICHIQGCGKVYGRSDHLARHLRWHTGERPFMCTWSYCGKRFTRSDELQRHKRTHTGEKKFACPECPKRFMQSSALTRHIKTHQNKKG
# Chain of ZFP SBS#1057 (synthetic) (chain, as listed by the source): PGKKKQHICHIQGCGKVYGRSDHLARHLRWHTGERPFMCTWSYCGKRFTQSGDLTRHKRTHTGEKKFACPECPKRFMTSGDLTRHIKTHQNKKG
binder,measurement,setting,value
B1,Kd,ZFP SBS#944,0.027 nM
same,Kd,ZFP SBS#941,0.077 nM
same,Kd,ZFP SBS#943,0.067 nM
same,Kd,ZFP SBS#993,3.1 nM
same,Kd,ZFP SBS#1040,0.05 nM
same,Kd,ZFP SBS#942,0.13 nM
same,Kd,ZFP SBS#1039,1.37 nM
B2,Kd,ZFP SBS#453,150 nM
same,Kd,ZFP SBS#441,250 nM
B3,Kd,ZFP SBS#1066,0.15 nM
same,Kd,ZFP SBS#1067,1.37 nM
B4,Kd,ZFP SBS#1060,0.69 nM
B5,Kd,ZFP SBS#1041,2.06 nM
same,Kd,ZFP SBS#919,250 nM
B6,Kd,ZFP SBS#1053,0.025 nM
same,Kd,ZFP SBS#1052,0.28 nM
B7,Kd,ZFP SBS#1059,0.152 nM
same,Kd,ZFP SBS#1058,6.28 nM
B8,Kd,ZFP SBS#1043,0.16 nM
same,Kd,ZFP SBS#1044,1.07 nM
B9,Kd,ZFP SBS#1048,1.39 nM
same,Kd,ZFP SBS#1049,55.6 nM
same,Kd,ZFP SBS#1050,0.125 nM
B10,Kd,ZFP SBS#1051,0.02 nM
B11,Kd,ZFP SBS#1064,0.453 nM
B12,Kd,ZFP SBS#1047,24.7 nM
same,Kd,ZFP SBS#1046,0.09 nM
same,Kd,ZFP SBS#1045,0.15 nM
B13,Kd,ZFP SBS#1065,1.37 nM
B14,Kd,ZFP SBS#461,120 nM
B15,Kd,ZFP SBS#1057,0.483 nM
same,Kd,ZFP SBS#1055,18.7 nM
same,Kd,ZFP SBS#1056,0.045 nM
same,Kd,ZFP SBS#1054,0.033 nM
B16,Kd,ZFP SBS#1063,0.96 nM
same,Kd,ZFP SBS#1062,0.068 nM
same,Kd,ZFP SBS#1061,0.165 nM
